Measured values from publication PMC3196243 (Biochemistry, 2011).
Like-named read-outs stand apart in the source and are kept apart here.

T1: His6-IC3 (third intracellular loop of the dopamine D2S receptor, R217-Q345) (UniProt P61169-2 217-345)
T1 sequence (looked up): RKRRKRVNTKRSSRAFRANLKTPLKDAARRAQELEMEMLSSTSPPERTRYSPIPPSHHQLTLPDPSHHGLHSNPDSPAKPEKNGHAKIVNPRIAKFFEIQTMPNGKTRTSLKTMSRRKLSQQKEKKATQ

B1: S100B (natural protein)
chain: SELEKAMVALIDVFHQYSGREGDKHKLKKSELKELINNELSHFLEEIKEQEVVDKVMETLDNDGDGECDFQEFMAFVAMVTTACHEFFEHE

How the values were obtained:
[1] = target: B1; experiment: NMR titration
[2] = target: B1; experiment: NMR titration; remark: listed apart in the source
[3] = target: T1, His6-IC3 (third intracellular loop of …); experiment: pull-down

Binder	Kd [1] [µM]	Kd [2] [µM]	binding result [3]
IC3-C58 (domain or fragment, UniProt P61169-2 288-345, looked up) SNPDSPAKPEKNGHAKIVNPRIAKFFEIQTMPNGKTRTSLKTMSRRKLSQQKEKKATQ	1 ± 1	274 ± 58	
B1			binds
